Test results from US20040018172A1 (US Dept. of Health and Human Services, published 2004).
Blank lines part the entries; values can stand above or below the binder they belong to.

Tests used:
[1] = target: T1, ^125I-IFN-α2b binding site on Daudi and WISH cells (human); assay: displacement of ^125I-IFN-α2b from Daudi cells (competitor: ^125I-IFN-α2b)
T1 chain 1: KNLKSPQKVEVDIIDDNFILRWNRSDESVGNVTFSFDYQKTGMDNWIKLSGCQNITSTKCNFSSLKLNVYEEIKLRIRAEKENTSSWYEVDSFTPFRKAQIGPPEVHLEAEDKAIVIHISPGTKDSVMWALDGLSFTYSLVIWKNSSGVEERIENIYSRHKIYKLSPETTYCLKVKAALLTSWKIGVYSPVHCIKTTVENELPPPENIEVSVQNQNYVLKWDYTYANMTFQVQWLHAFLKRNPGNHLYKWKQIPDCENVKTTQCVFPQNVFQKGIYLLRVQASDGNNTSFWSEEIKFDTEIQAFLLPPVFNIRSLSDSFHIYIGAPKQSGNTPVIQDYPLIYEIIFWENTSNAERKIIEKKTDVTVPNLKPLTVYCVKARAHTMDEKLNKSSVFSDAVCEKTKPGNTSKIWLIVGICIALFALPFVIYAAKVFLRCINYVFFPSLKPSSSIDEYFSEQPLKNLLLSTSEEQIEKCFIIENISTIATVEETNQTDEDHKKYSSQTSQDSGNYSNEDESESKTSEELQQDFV
T1 chain 2: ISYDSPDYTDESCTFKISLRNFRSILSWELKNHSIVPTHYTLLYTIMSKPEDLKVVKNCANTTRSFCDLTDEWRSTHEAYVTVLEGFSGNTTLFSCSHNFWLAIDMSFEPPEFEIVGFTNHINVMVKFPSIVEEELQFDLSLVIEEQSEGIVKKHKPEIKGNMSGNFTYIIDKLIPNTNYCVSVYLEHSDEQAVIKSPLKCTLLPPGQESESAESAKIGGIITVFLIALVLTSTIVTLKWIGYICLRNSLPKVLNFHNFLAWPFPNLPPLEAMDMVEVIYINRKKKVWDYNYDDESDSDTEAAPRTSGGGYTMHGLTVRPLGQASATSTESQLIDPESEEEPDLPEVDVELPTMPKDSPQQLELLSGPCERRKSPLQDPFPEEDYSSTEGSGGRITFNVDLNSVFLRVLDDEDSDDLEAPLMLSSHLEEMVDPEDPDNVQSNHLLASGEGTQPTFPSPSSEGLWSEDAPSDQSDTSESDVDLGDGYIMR

[2] = target: T1, ^125I-IFN-α2b binding site on Daudi and …; assay: displacement of ^125I-IFN-α2b from WISH cells (competitor: ^125I-IFN-α2b)

- IC50 [1]: > 0.4 µg/mL
- IC50 [2]: > 0.2 µg/mL
B1: HY-2: IFN-α21a(1-95)/IFN-α2c(96-166) (ligand)
chain: CDLPQTHSLGNRRALILLAQMGRISPFSCLKDRHDFGFPQEEFDGNQFQKAQAISVLHEMIQQTFNLFSTKDSSATWEQSLLEKFSTELNQQLNDLEACVIQGVGVTETPLMKEDSILAVRKYFQRITLYLKEKKYSPCAWEVVRAEIMRSFSLSTNLQESLRSKE
notes: Expressed from pQE30 in E. coli and purified on Ni-NTA, so an amino-terminal hexa-histidine tag may be present; also called AF085804

- IC50 [1]: > 0.4 µg/mL
- IC50 [2]: > 0.2 µg/mL
B2: IFN-α21a (ligand, human, UniProt P01568 24-189, looked up)
chain: CDLPQTHSLGNRRALILLAQMGRISPFSCLKDRHDFGFPQEEFDGNQFQKAQAISVLHEMIQQTFNLFSTKDSSATWEQSLLEKFSTELNQQLNDLEACVIQEVGVEETPLMNVDSILAVKKYFQRITLYLTEKKYSPCAWEVVRAEIMRSFSLSKIFQERLRRKE
notes: mature; Recombinant, made in E. coli from pQE30/A21 and purified on Ni-NTA, so an amino-terminal hexa-histidine tag may be present; also called interferon-α21a; IFNA21
